In the RNAGym collection of RNA variant scans (doi:10.1073/pnas.2313332121):

B1: TPR t1 (parent)
chain: GACCAAUCUGCCCUCAGAGCUCGAGAACAUCUUCGGAUGCAGAGGAGGCAGGCUUCGGUGGCGCGAUAGCGCCAACGUCCUCAACCUCCAAUGCAUCCCACCACAUGAUGAUGCCUGAAGAGCCUUGGUUUUUUG

Variants of: B1
Test: polymerase ribozyme fitness, log enrichment relative to wild type (log ratio); higher = more active; in vitro selection for triplet polymerase activity
Summary of the method: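 Mutant libraries for each subunit of a heterodimeric triplet polymerase ribozyme were made by PCR and then transcribed. Each library underwent one round of in vitro selection in triplicate: annealing with a biotinylated primer, the partner subunit and triplets, frozen incubation at −7 °C, gel excision of extended constructs, streptavidin-bead capture and RT-PCR. Input and output libraries were Illumina-sequenced, and only genotypes with ≥10 input reads and ≥1 read per output were kept. Fitness is the logarithm, base 2, of genotype enrichment over wild-type enrichment, computed from inverse-variance-weighted replicate averages.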

Variant	polymerase ribozyme fitness (log ratio)
GACCAAUCUGCCCUCAGAGCUCGAGAACAUCUUCGGAUGCAGAGGAGGCAGGCUUCGGUGGCGCGAUAGCGCCAACGUCCUCAACCUUCAAUGCAUCCCACCACAUGAUGAUGCCUGAAGAGCAUUGGUUUUUUG	1.47
GACCAAUCUGCCCUCAGAGCUCGAGAACAUCUUCGGAUGCAGAGGAGGCAGGCUUCGGUGGCGCGAUAGCGCCAACGUCCUCAACCUACAAUGCAUCCCACCACAUGAUGAUGCCUGAAGAGUCUUGGUUUUUUG	1.08
GACCAAUCUGCCCUCAGAGCUCGAGAACAUCUUCGGAUGCAGAGGAGGCAGGCUUCGGUGGCGCGAUAGCGCCAACGUCCUCAACCUACAAUGCAUCCCACCACAUGAUGAUUCCUGAAGAGCCUUGGUUUUUUG	-2.76
GACCAAUCUGCCCUCAGAGCUCGAGAACAUCUUCGGAUGCAGAGGAGGCAGGCUUCGGUGGCGCGAUAGCGCCAACGUCCUCAACCGCCAAUGCAUCCCACCACAUGAUGUUGCCUGAAGAGCCUUGGUUUUUUG	-2.77
GACCAAUCUGCCCUCAGAGCUCGAGAACAUCUUCGGAUGCAGAGGAGGCAGGCUUCGGUGGCGCGAUAGCGCCAACGUCCUCAACCUUCAAUGCAUCACACCACAGGAUGAUGCCUGAAGAGCCUUGGUUUUUUG	-5.05
GACCAAUCUGCCCUCAGAGCUCGAGAACAUCUUCGGAUGCAGAGGAGGCAGGCUUCGGUGGCGCGAUAGCGCCAACGUCCUCAACCUGCAAUGCAUCCCACCAAAUGAUGAGGCCUGAAGAGCCUUGGUUUUUUG	-4.26
GACCAAUCUGCCCUCAGAGCUCGAGAACAUCUUCGGAUGCAGAGGAGGCAGGCUUCGGUGGCGCGAUAGCGCCAACGUCCUCAACCUACAAUGCAUCCCACCACAUGAUGAUGCCUGAAGAGCCUUGGUUUUAUG	0.0129
GACCAAUCUGCCCUCAGAGCUCGAGAACAUCUUCGGAUGCAGAGGAGGCAGGCUUCGGUGGCGCGAUAGCGCCAACGUCCUCAACCUGCAAUGCAUCCCACCACAUGAUGAUGCCUGAAGAGCCUUGGUGUUUUG	-0.5
GACCAAUCUGCCCUCAGAGCUCGAGAACAUCUUCGGAUGCAGAGGAGGCAGGCUUCGGUGGCGCGAUAGCGCCAACGUCCUCAACCUGCAAUGCAUCCCACCACAUGAUGAUGCCUGAAGAGCCUUGGUCUUUUG	-0.362
GACCAAUCUGCCCUCAGAGCUCGAGAACAUCUUCGGAUGCAGAGGAGGCAGGCUUCGGUGGCGCGAUAGCGCCAACGUCCUCAACCGCCAAUGCAUCCCACCACAUGAUGAUGCCUGAAGAGCAUUGGUUUUUUG	0.735
GACCAAUCUGCCCUCAGAGCUCGAGAACAUCUUCGGAUGCAGAGGAGGCAGGCUUCGGUGGCGCGAUAGCGCCAACGUCCUCAACCGCCAAUGCAUCCCACCACAUGAUGAUUCCUGAAGAGCCUUGGUUUUUUG	-3.33
GACCAAUCUGCCCUCAGAGCUCGAGAACAUCUUCGGAUGCAGAGGAGGCAGGCUUCGGUGGCGCGAUAGCGCCAACGUCCUCAACCUUCAAUGCAUCCCACCACAUGAUUAUGCCUGAAGAGCCGUGGUUUUUUG	-2.46
GACCAAUCUGCCCUCAGAGCUCGAGAACAUCUUCGGAUGCAGAGGAGGCAGGCUUCGGUGGCGCGAUAGCGCCAACGUCCUCAACCGCCAAUGCAUCCCACCACAUGAUGAUGCCUGAAGCGCCUUGGUUUUUUG	1.82
GACCAAUCUGCCCUCAGAGCUCGAGAACAUCUUCGGAUGCAGAGGAGGCAGGCUUCGGUGGCGCGAUAGCGCCAACGUCCUCAACCCCCAAUGCAUCCCACCACAUGAUGAUGCCUGAAUAGCCUUGGUUUUUUG	-1.06
GACCAAUCUGCCCUCAGAGCUCGAGAACAUCUUCGGAUGCAGAGGAGGCAGGCUUCGGUGGCGCGAUAGCGCCAACGUCCUCAACCUACAAUGCAUCCCACCACAUGAUGAUGCCUGAAGCGCCUUGGUUUUUUG	1.66
GACCAAUCUGCCCUCAGAGCUCGAGAACAUCUUCGGAUGCAGAGGAGGCAGGCUUCGGUGGCGCGAUAGCGCCAACGUCCUCAACCUACAAUGCAUCCCAUCACAUGAUGUUGCCUGAAGAGCCUUGGUUUUUUG	-3.57
GACCAAUCUGCCCUCAGAGCUCGAGAACAUCUUCGGAUGCAGAGGAGGCAGGCUUCGGUGGCGCGAUAGCGCCAACGUCCUCAACCUGCAAUGCAUCCCACCACAUGAUGAUGCCUGAAAAGCCUUGGAUUUUUG	-1.48
GACCAAUCUGCCCUCAGAGCUCGAGAACAUCUUCGGAUGCAGAGGAGGCAGGCUUCGGUGGCGCGAUAGCGCCAACGUCCUCAACCCCCAAUGCAUCCCACCACAUGAUGAUGCCUGAAAAGCCUUAGUUUUUUG	-1.22
GACCAAUCUGCCCUCAGAGCUCGAGAACAUCUUCGGAUGCAGAGGAGGCAGGCUUCGGUGGCGCGAUAGCGCCAACGUCCUCAACCUUCAAUGCAUCCCACCACAUGAUCAUGCCUGAAGAGCCUUGGUUUUUUG	-3.92
GACCAAUCUGCCCUCAGAGCUCGAGAACAUCUUCGGAUGCAGAGGAGGCAGGCUUCGGUGGCGCGAUAGCGCCAACGUCCUCAACCUGCAAUGCAUCCCACCACAUGAUGAUGCCUCAAGAGCCUUGGUUUUAUG	-3.79
GACCAAUCUGCCCUCAGAGCUCGAGAACAUCUUCGGAUGCAGAGGAGGCAGGCUUCGGUGGCGCGAUAGCGCCAACGUCCUCAACCUAGAAUGCAUCCCACCACAUGAUGAUGCCUGAAGAGUCUUGGUUUUUGG	0.911
